This is an account of results in the supplement of paper PMC9233669.

Data set [1] deals with biotinyl-Met-oxazolone. The data set can be described thus: self-aminoacylation, catalytic enhancement (BMO) (fold over background); higher = more active; k-Seq, kA / k0A0; sequences stand for … in GGGAAUGGAUCCACAUCUACGAAUUC…UUCACUGCAGACUUGACGAAGCUG
A digest of the protocol:
(§1)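 Mutagenized RNA pools with a 21-nt variable region (0.43 μM) were reacted with each biotinyl-aminoacyl-oxazolone at 2–1250 μM for 90 minutes at room temperature, in 50 μL HEPES/NaCl/KCl/MgCl2/CaCl2 buffer containing 5% acetonitrile at pH 6.9–7.0. RNA captured on streptavidin was quantified by triplicate qPCR and by Illumina sequencing. The fraction reacted for each sequence was fit to a pseudo-first-order model with bootstrapping, and catalytic enhancement is the median kA divided by the uncatalyzed rate, taken as the low-activity peak of a bimodal Gaussian fit.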

The subject of data set [2] is biotinyl-Leu-oxazolone. The data set can be described thus: self-aminoacylation, catalytic enhancement (BLO) (fold over background); higher = more active; k-Seq, kA / k0A0; sequences stand for … in GGGAAUGGAUCCACAUCUACGAAUUC…UUCACUGCAGACUUGACGAAGCUG
A digest of the protocol: as §1

The test system of data set [3] is biotinyl-Val-oxazolone. The data set can be described thus: self-aminoacylation, catalytic enhancement (BVO) (fold over background); higher = more active; k-Seq, kA / k0A0; sequences stand for … in GGGAAUGGAUCCACAUCUACGAAUUC…UUCACUGCAGACUUGACGAAGCUG
A digest of the protocol: as §1

The test system of data set [4] is biotinyl-Trp-oxazolone. The data set can be described thus: self-aminoacylation, catalytic enhancement (BWO) (fold over background); higher = more active; k-Seq, kA / k0A0; sequences stand for … in GGGAAUGGAUCCACAUCUACGAAUUC…UUCACUGCAGACUUGACGAAGCUG
A digest of the protocol: as §1

The test system of data set [5] is biotinyl-Phe-oxazolone. The data set can be described thus: self-aminoacylation, catalytic enhancement (BFO) (fold over background); higher = more active; k-Seq, kA / k0A0; sequences stand for … in GGGAAUGGAUCCACAUCUACGAAUUC…UUCACUGCAGACUUGACGAAGCUG
A digest of the protocol:
as §1

Variants at the floor of the assay were thinned out.

With “AUCACCCUGGUCAUCGAGGGA [Fam2.1 aminoacylation ribozyme variant]”, the self-aminoacylation in data set [1] was 2.2; in data set [2], 3.12; in data set [3], 2.03; in data set [4], 2.94; in data set [5], 12.5.
For the sequence “AUUACCCUGGUUAUCGAGUGU [Fam2.1 aminoacylation ribozyme variant]”, the self-aminoacylation is 2.66 in data set [1], 2.57 in data set [2], 3.92 in data set [4] and 3.12 in data set [5].
As for “AUUACCCUGGUAAUCGUGUGA [Fam2.1 aminoacylation ribozyme variant]”, the self-aminoacylation amounted to 3.48 in data set [1], 3.58 in data set [2], 4.1 in data set [4] and 22.2 in data set [5].
On to “CCCCGCUUCAAGCAAUCGGUC [Fam1B.1 aminoacylation ribozyme variant]”, for which the self-aminoacylation was found to be 2.12 in data set [1]; 3.73 in data set [2]; 2.69 in data set [3]; 70.4 in data set [4]; 142 in data set [5].
For the sequence “AUAACCCUGGUCAUCGAGUAA [Fam2.1 aminoacylation ribozyme variant]”, the self-aminoacylation in data set [1] amounted to 3.64; in data set [2], 3.46; in data set [4], 2.47; in data set [5], 7.47.
On the same counts, the results for “AUUCAGCUAGGUCAUCUGGUG [Fam2.2 aminoacylation ribozyme variant]” are 2.3, 2.35, 2.25 and 13.4.
The corresponding values for “AUACACCUAGGUCAACGGGUG [Fam2.2 aminoacylation ribozyme variant]” are 2.09, 2.79, 2.02 and 6.06.
Take “AUUACCCAGGCCAUCGAGUGA [Fam2.1 aminoacylation ribozyme variant]”: the results for the self-aminoacylation in data set [1], in data set [2] and in data set [5] were 2.52, 2.69 and 11, respectively.
Consider “AUUCACCUAGCUCAUCGGGUG [Fam2.2 aminoacylation ribozyme variant]”, for which the self-aminoacylation in data set [2] was 2.05; in data set [3] it was 2.1; in data set [5], 7.85.
In the case of “AUUCACCUAAGUCAUCGGGUU [Fam2.2 aminoacylation ribozyme variant]”, the self-aminoacylation in data set [1] was 2.63; in data set [2] it was 2.55; in data set [5], 10.7.
Consider “AGUCACCUAGGUCAUCUGGUG [Fam2.2 aminoacylation ribozyme variant]”, for which the self-aminoacylation was 2.31 in data set [1], 2.59 in data set [2], 2.38 in data set [4] and 15.2 in data set [5].
On the same counts, the results for “GUUCACCUAGGUCAACGGGUG [Fam2.2 aminoacylation ribozyme variant]” are 2.11, 2.5, 3.22 and 17.5.
On the same counts, the results for “AUUACCCUGGUCCUCGUGUGA [Fam2.1 aminoacylation ribozyme variant]” are 2.89, 2.88, 2.73 and 14.
With “AUUACCCUGGUCAUUGAGUGG [Fam2.1 aminoacylation ribozyme variant]”, the self-aminoacylation in data set [1] came out at 2.54; in data set [2], 2.66; in data set [4], 3.09; in data set [5], 2.08.
The corresponding values for “AUUCACCUAGAUCAGCGGGUG [Fam2.2 aminoacylation ribozyme variant]” are 2.39, 3.1, 2.88 and 11.7.
As for “AUUCACCUCGGUCAUCGGCUG [Fam2.2 aminoacylation ribozyme variant]”, the self-aminoacylation came to 2.65 in data set [3], 2.02 in data set [4] and 8.33 in data set [5].
Regarding “AUUACUCUGGUCAUCGUGUGA [Fam2.1 aminoacylation ribozyme variant]”, the self-aminoacylation in data set [1] is 2.45; in data set [2], 2.81; in data set [4], 3.34; in data set [5], 12.5.
Consider “AUUAACCUAGGUCAUCUGGUG [Fam2.2 aminoacylation ribozyme variant]”, for which the self-aminoacylation was 2.59 in data set [1], 3.34 in data set [2], 2.7 in data set [4] and 13.6 in data set [5].
On to “AUUUCCCUGGUCAUCGUGUGA [Fam2.1 aminoacylation ribozyme variant]”, for which the self-aminoacylation came out at 3.61 in data set [1], 3.65 in data set [2], 4.8 in data set [4] and 27.1 in data set [5].
For “AAGGUCGCUAAUAGUCGCAAG [Fam3.1 aminoacylation ribozyme variant]”, the self-aminoacylation in data set [3] is 2.13; in data set [4] it was 2.4; in data set [5] it was 2.86.
Regarding “CCACACGUCAAGCAAUCGGGC [Fam1B.1 aminoacylation ribozyme variant]”, the values for the self-aminoacylation in data set [3] and in data set [5] were 2.23 and 2.86, respectively.
In the case of “CCACGCUUCAAGCAAUCGGCC [Fam1B.1 aminoacylation ribozyme variant]”, the values for the self-aminoacylation in data set [3], in data set [4] and in data set [5] were 2.77, 8.15 and 7.98, respectively.
As to “AAGCUUGCUAUUAGUCGCAAG [Fam3.1 aminoacylation ribozyme variant]”, the self-aminoacylation stood at 2.23 in data set [1], 2.48 in data set [2] and 2.62 in data set [5].
As for “CCACUUCAAACAAUCGGUCUC [Fam1A.1 aminoacylation ribozyme variant]”, the self-aminoacylation was found to be 2.08 in data set [1], 2.13 in data set [2], 42.2 in data set [4] and 75.8 in data set [5].
